{
  "source": "patent US20230391893A1",
  "about": "(published 2023)",
  "binders": {"B1": {"name": "LLC1 (receptor)", "chain": "TIDTKRNISAEEGGSVILQCHFSSDTAEVTQVDWKQQDQLLAIYSVDLGWHVASVFSDRVVPGPSLGLTFQSLTMNDTGEYFCTYHTYPGGIYKGRIFLKVQESSDDRNGLAQFQTAPLG"}},
  "biological_target": "dICB-huHF",
  "experiment": "flow cytometry; LLC1 cells",
  "data": [
    {"binder": "B1", "values": [
      {"measurement": "Kd", "result": 0.0323, "unit": "µM"}
    ]}
  ]
}
